The results in this text go back to patent US20130137855A1 (CSL, published 2013).

Assay [1] addresses Soluble human IL-3Rα (human) (UniProt P26951). The assay is described as follows: SPR (Biacore), soluble human IL-3Rα immobilized on CM-5 chip, scFv injected, 25 °C. For orientation: Surface plasmon resonance follows binding to a sensor surface in real time, without labels.
Assay [2] deals with T1, Soluble human IL-3Rα (human, UniProt P26951 20-305, limits assumed).
T1 construct: The assay used 'soluble human IL-3Rα'; also called IL-3Rα chain; interleukin 3 receptor alpha chain
T1 sequence: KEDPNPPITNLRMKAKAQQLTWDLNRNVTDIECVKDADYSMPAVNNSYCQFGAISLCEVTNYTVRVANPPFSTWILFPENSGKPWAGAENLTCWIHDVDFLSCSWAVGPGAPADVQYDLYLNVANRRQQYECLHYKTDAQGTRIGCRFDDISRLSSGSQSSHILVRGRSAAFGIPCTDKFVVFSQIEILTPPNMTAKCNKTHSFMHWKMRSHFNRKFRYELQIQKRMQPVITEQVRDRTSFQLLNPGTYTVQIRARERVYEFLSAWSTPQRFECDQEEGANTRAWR
The assay is described as follows: SPR (Biacore), mAb captured by anti-human Fc antibody, soluble human IL-3Rα injected, 25 °C.

Assay [3] addresses T1, Soluble human IL-3Rα. Kind of assay: SPR (Biacore), mAb captured by anti-mouse Fc antibody, soluble human IL-3Rα injected, 25 °C.

The molecule CSL362 scFv displayed a dissociation constant Kd in assay [1] of 2.2 nM.

For “chimeric form of parental murine mAb (human IgG1) (antibody)”, the dissociation constant (Kd) in the assay with Soluble human IL-3Rα [2] is 1 nM.

Take parental murine mAb (7G3) (antibody): the dissociation constant Kd with Soluble human IL-3Rα [3] was found to be 0.92 nM.

B1: CSL362B (antibody, human IgG1, kappa, V domains shown)
VH: EVQLVQSGAEVKKPGESLKISCKGSGYSFTDYYMKWARQMPGKGLEWMGDIIPSNGATFYNQKFKGQVTISADKSISTTYLQWSSLKASDTAMYYCARSHLLRASWFAYWGQGTMVTVSS
VL: DIVMTQSPDSLAVSLGERATINCESSQSLLNSGNQKNYLTWYQQKPGQPPKPLIYWASTRESGVPDRFSGSGSGTDFTLTISSLQAEDVAVYYCQNDYSYPYTFGQGTKLEIKR
modifications: Heavy chain constant region is afucosylated
notes: Expressed in FUT8-knock-out CHO cells (Potelligent)
As to B1, in the assay with Soluble human IL-3Rα [2], the dissociation constant Kd was around 0.43 nM.

The term Kd denotes the free concentration of one partner at which half of the binding sites on the other are occupied at equilibrium, for simple one-to-one binding. Lower therefore signals tighter binding.
